B1: wild-type MtbMpa (mycobacterial proteasomal ATPase), hexamer (enzyme)
chain: MGESERSEAFGIPRDSPLSSGDAAELEQLRREAAVLREQLENAVGSHAPTRSARDIHQLEARIDSLAARNSKLMETLKEARQQLLALREEVDRLGQPPSGYGVLLATHDDDTVDVFTSGRKMRLTCSPNIDAASLKKGQTVRLNEALTVVEAGTFEAVGEISTLREILADGHRALVVGHADEERVVWLADPLIAEDLPDGLPEALNDDTRPRKLRPGDSLLVDTKAGYAFERIPKAEVEDLVLEEVPDVSYADIGGLSRQIEQIRDAVELPFLHKELYREYSLRPPKGVLLYGPPGCGKTLIAKAVANSLAKKMAEVRGDDAHEAKSYFLNIKGPELLNKFVGETERHIRLIFQRAREKASEGTPVIVFFDEMDSIFRTRGTGVSSDVETTVVPQLLSEIDGVEGLENVIVIGASNREDMIDPAILRPGRLDVKIKIERPDAEAAQDIYSKYLTEFLPVHADDLAEFDGDRSACIKAMIEKVVDRMYAEIDDNRFLEVTYANGDKEVMYFKDFNSGAMIQNVVDRAKKNAIKSVLETGQPGLRIQHLLDSIVDEFAENEDLPNTTNPDDWARISGKKGERIVYIRTLVTGKSSSASRAIDTESNLGQYL
B2: Pup-Icl1-Fl (fluorescein-labelled pupylated isocitrate lyase 1 Icl1) (complex)
chain 1: MSVVGTPKSAEQIQQEWDTNPRWKDVTRTYSAEDVVALQGSVVEEHTLARRGAEVLWEQLHDLEWVNALGALTGNMAVQQVRAGLKAIYLSGWQVAGDANLSGHTYPDQSLYPANSVPQVVRRINNALQRADQIAKIEGDTSVENWLAPIVADGEAGFGGALNVYELQKALIAAGVAGSHWEDQLASEKKCGHLGGKVLIPTQQHIRTLTSARLAADVADVPTVVIARTDAEAATLITSDVDERDQPFITGERTREGFYRTKNGIEPCIARAKAYAPFADLIWMETGTPDLEAARQFSEAVKAEYPDQMLAYNCSPSFNWKKHLDDATIAKFQKELAAMGFKFQFITLAGFHALNYSMFDLAYGYAQNQMSAYVELQEREFAAEERGYTATKHQREVGAGYFDRIATTVDPNSSTTALTGSTEEGQFH
chain 2: MAQEQTKRGGGGGDDDDIAGSTAAGQERREKLTEETDDLLDEIDDVLEENAEDFVRAYVQKGGE
notes: copies: 4 + 2
B3: Pup-Icl1 (pupylated isocitrate lyase 1 Icl1), unlabelled (complex)
chain 1: B2 chain 1
chain 2: B2 chain 2
notes: copies: 4 + 2

Key:
Assay in all cases: MST
Conditions in all cases: both partners purified
[1] = target: Pup-PckA-Fl (fluorescein-labelled pupylated phosphoenolpyruvate carboxykinase PckA) (Mycobacterium tuberculosis, UniProt P9WIH3;P9WHN5, PupE (C-terminal glutamine as glutamate))
[2] = target: B1
[3] = target: T1, fluorescently labelled Dop (deamidase of Pup; depupylase) (UniProt P9WNU9 1-505)
T1 sequence: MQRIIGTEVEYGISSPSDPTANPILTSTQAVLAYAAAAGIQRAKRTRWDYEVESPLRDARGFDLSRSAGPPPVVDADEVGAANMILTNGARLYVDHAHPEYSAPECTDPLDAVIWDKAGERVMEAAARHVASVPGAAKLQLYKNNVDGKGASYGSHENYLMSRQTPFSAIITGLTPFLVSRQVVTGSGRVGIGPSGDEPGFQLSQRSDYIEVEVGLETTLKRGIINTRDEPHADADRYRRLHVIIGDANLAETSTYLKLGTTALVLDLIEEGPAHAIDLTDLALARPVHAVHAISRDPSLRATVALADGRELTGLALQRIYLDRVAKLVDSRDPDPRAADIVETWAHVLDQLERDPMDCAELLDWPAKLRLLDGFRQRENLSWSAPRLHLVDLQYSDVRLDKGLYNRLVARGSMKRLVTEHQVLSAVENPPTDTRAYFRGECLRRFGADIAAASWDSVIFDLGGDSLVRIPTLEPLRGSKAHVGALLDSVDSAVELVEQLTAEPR

Binder: B1
- Kd [1]: 210 ± 100 nM

Binder: B2
- Kd [2]: 160 ± 30 nM

Binder: B3
- Kd [3]: 129 ± 41 nM

Reference: publication PMC6476560 (PLoS ONE, 2019)
